In test [1] the target is p766-Gravin (human (endogenous in U2OS; cells of Figure 2E-H not stated)) (UniProt Q02952). Put plainly: proximity ligation; in situ PLA in U2OS cells stably expressing the mother centriole marker myc-centriolin; signal at the mother spindle pole relative to the daughter spindle pole.
For test [2] the target is unchanged. Put plainly: proximity ligation; in situ PLA with antibodies to p766-Gravin and to Aurora A or Plk1 in fixed cells at different stages of the cell cycle; integrated signal per cell normalised to interphase cells; n = 3 experiments.
The target in test [3] is Gravin (human (endogenous in HEK293)) (UniProt Q02952).

For the molecule “polo-like kinase 1 (from UniProt P53350 1-603) (enzyme)”, the fold PLA signal, mother against daughter spindle pole in test [1] is 2.35 fold. In test [2], the fold PLA signal, metaphase against interphase cells amounted to 10.3 fold.

B1: Aurora A (enzyme)
chain: MDRSKENCISGPVKATAPVGGPKRVLVTQQFPCQNPLPVNSGQAQRVLCPSNSSQRIPLQAQKLVSSHKPVQNQKQKQLQATSVPHPVSRPLNNTQKSKQPLPSAPENNPEEELASKQKNEESKKRQWALEDFEIGRPLGKGKFGNVYLAREKQSKFILALKVLFKAQLEKAGVEHQLRREVEIQSHLRHPNILRLYGYFHDATRVYLILEYAPLGTVYRELQKLSKFDEQRTATYITELANALSYCHSKRVIHRDIKPENLLLGSAGELKIADFGWSVHAPSSRRTTLCGTLDYLPPEMIEGRMHDEKVDLWSLGVLCYEFLVGKPPFEANTYQETYKRISRVEFTFPDFVTEGARDLISRLLKHNPSQRPMLREVLEHPWITANSSKPSNCQNKESASKQS
In test [3], B1 gave a Kemptide (300 uM) phosphorylation (32P incorporation) in Gravin immune complexes isolated from mitotic lysates; share blocked by the Aurora A inhibitor VX-680 of 33.5%. In addition, the fold PLA puncta, mother against daughter spindle pole in test [1] was found to be 4.16 fold. For the same molecule, the fold PLA signal, metaphase against interphase cells in test [2] was 3.86 fold.

The values are drawn from publication PMC4612572.
